{"source": "paper PMC6844113", "proteins": {"B1": {"name": "human DNA topoisomerase IIα (Homo sapiens) (protein)", "chain": "MEVSPLQPVNENMQVNKIKKNEDAKKRLSVERIYQKKTQLEHILLRPDTYIGSVELVTQQMWVYDEDVGINYREVTFVPGLYKIFDEILVNAADNKQRDPKMSCIRVTIDPENNLISIWNNGKGIPVVEHKVEKMYVPALIFGQLLTSSNYDDDEKKVTGGRNGYGAKLCNIFSTKFTVETASREYKKMFKQTWMDNMGRAGEMELKPFNGEDYTCITFQPDLSKFKMQSLDKDIVALMVRRAYDIAGSTKDVKVFLNGNKLPVKGFRSYVDMYLKDKLDETGNSLKVIHEQVNHRWEVCLTMSEKGFQQISFVNSIATSKGGRHVDYVADQIVTKLVDVVKKKNKGGVAVKAHQVKNHMWIFVNALIENPTFDSQTKENMTLQPKSFGSTCQLSEKFIKAAIGCGIVESILNWVKFKAQVQLNKKCSAVKHNRIKGIPKLDDANDAGGRNSTECTLILTEGDSAKTLAVSGLGVVGRDKYGVFPLRGKILNVREASHKQIMENAEINNIIKIVGLQYKKNYEDEDSLKTLRYGKIMIMTDQDQDGSHIKGLLINFIHHNWPSLLRHRFLEEFITPIVKVSKNKQEMAFYSLPEFEEWKSSTPNHKKWKVKYYKGLGTSTSKEAKEYFADMKRHRIQFKYSGPEDDAAISLAFSKKQIDDRKEWLTNFMEDRRQRKLLGLPEDYLYGQTTTYLTYNDFINKELILFSNSDNERSIPSMVDGLKPGQRKVLFTCFKRNDKREVKVAQLAGSVAEMSSYHHGEMSLMMTIINLAQNFVGSNNLNLLQPIGQFGTRLHGGKDSASPRYIFTMLSSLARLLFPPKDDHTLKFLYDDNQRVEPEWYIPIIPMVLINGAEGIGTGWSCKIPNFDVREIVNNIRRLMDGEEPLPMLPSYKNFKGTIEELAPNQYVISGEVAILNSTTIEISELPVRTWTQTYKEQVLEPMLNGTEKTPPLITDYREYHTDTTVKFVVKMTEEKLAEAERVGLHKVFKLQTSLTCNSMVLFDHVGCLKKYDTVLDILRDFFELRLKYYGLRKEWLLGMLGAESAKLNNQARFILEKIDGKIIIENKPKKELIKVLIQRGYDSDPVKAWKEAQQKVPDEEENEESDNEKETEKSDSVTDSGPTFNYLLDMPLWYLTKEKKDELCRLRNEKEQELDTLKRKSPSDLWKEDLATFIEELEAVEAKEKQDEQVGLPGKGGKAKGKKTQMAEVLPSPRGQRVIPRITIEMKAEAEKKNKKKIKNENTEGSPQEDGVELEGLKQRLEKKQKREPGTKTKKQTTLAFKPIKKGKKRNPWSDSESDRSSDESNFDVPPRETEPRRAATKTKFTMDLDSDEDFSDFDEKTDDEDFVPSDASPPKTKTSPKLSNKELKPQKSVVSDLEADDVKGSVPLSSSPPATHFPDETEITNPVPKKNVTVKKTAAKSQSSTSTTGAKKRAAPKGTKRDPALNSGVSQKPDPAKTKNRRKRKPSTSDDSDSNFEKIVSKAVTSKKSKGESDDFHMDFDSAVAPRAKSVRAKKPIKYLEESDEDDLF"}}, "substrate": "Nc1ncnc2c1ncn2[C@@H]1O[C@H](COP(=O)(O)OP(=O)(O)OP(=O)(O)O)[C@@H](O)[C@H]1O", "assay": "purified protein", "type": "biochemical, Homo sapiens", "conditions": "Mg2+", "data": [{"protein": "B1", "values": [{"measurement": "Km", "value": "0.22 ± 0.06", "unit": "mM"}]}]}
